How the values were obtained:
Settings in all cases: both partners purified
[1] = target: BCL-XL, biotinylated (UniProt Q07817-1 1-233, biotin); assay: BLI; Octet RED96; biotinylated BCL-2 proteins (25 nM) immobilised on streptavidin biosensors; 10 mM Hepes pH 7.4, 150 mM NaCl, 3 mM EDTA, 0.05% surfactant P20, 0.5% nonfat dry milk; multiple-concentration titrations, 1:1 binding model
[2] = target: BCL-2, biotinylated (UniProt P10415 1-239, biotin); assay: as above
[3] = target: T1, BAK-CDP02 (BAK-targeting computationally designed protein 02 of 11); assay: BLI; Octet RED96; biotinylated BCL-2 family proteins (25 nM) immobilised on streptavidin biosensors, designed protein in solution; 10 mM Hepes pH 7.4, 150 mM NaCl, 3 mM EDTA, 0.05% surfactant P20, 0.5% nonfat dry milk; titrations in triplicate, 1:1 binding model
T1 construct: Cloned into pET29b; source: E. coli, purified (Ni-NTA, SEC)

[4] = target: T2, αBAK2; assay: as above
T2 construct: Form used for BLI and, as far as told, for the liposome and cytochrome c assays; source: E. coli, purified

[5] = target: MBP-BIM-BH3; assay: as above
[6] = target: T3, αBAK1; assay: as above
T3 construct: source: E. coli, purified

[7] = target: αBAX1; assay: as above

BCL-XL, biotinylated, sequence (Q07817 whole entry): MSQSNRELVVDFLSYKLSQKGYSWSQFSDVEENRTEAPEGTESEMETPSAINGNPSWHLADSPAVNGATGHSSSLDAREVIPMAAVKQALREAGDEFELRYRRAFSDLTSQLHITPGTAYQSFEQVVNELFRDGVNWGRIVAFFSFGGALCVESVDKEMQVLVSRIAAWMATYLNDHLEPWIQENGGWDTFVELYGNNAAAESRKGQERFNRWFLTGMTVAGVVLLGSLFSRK
BCL-2, biotinylated, sequence (P10415 whole entry): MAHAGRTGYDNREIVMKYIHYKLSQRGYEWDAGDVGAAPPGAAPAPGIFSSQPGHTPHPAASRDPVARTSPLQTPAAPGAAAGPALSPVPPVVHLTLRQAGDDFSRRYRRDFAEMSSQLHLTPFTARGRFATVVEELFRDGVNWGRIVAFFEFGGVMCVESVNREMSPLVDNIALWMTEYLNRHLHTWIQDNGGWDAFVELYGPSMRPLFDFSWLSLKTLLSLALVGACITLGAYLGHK

B1: MBP-BidBH3 (domain or fragment, UniProt P55957 1-195, looked up)
chain: MDCEVNNGSSLRDECITNLLVFGFLQSCSDNSFRRELDALGHELPVLAPQWEGYDELQTDGNRSSHSRLGRIEADSESQEDIIRNIARHLAQVGDSMDRSIPPGLVNGLALQLRNTSRSEEDRNRDLATALEQLLQAYPRDMEKEKTMLVLALLLAKKVASHTPSLLRDVFHTTVNFINQNLRTYVRSLARNGMD
notes: BH3 peptide of the BH3-only protein BID, fused to MBP
[1]
  Kd: 2.3 ± 0.4 nM
[2]
  Kd: 47 ± 5 nM

B2: MBP-BAK 16-186, biotinylated (Avi tag, 6-histidine tag) (domain or fragment)
chain: EPALPSASEEQVAQDTEEVFRSYVFYRHQQEQEAEGVAAPADPEMVTLPLQPSSTMGQVGRQLAIIGDDINRRYDSEFQTMLQHLQPTAENAYEYFTKIATSLFESGINWGRVVALLGFGYRLALHVYQHGLTGFLGQVTRFVVDFMLHHCIARWIAQRGGWVAALNLGNGLEGLNDIFEAQKIEWHEGSHHHHHH
modifications: biotin on the Avi tag (enzymatic, BirA)
[3]
  Kd: 60 nM
[4]
  Kd: 0.4 nM
[5]
  Kd: 4 ± 2 µM
[6]
  Kd: 7 nM

B3: BFL-1 (natural protein)
chain: MTDCEFGYIYRLAQDYLQCVLQIPQPGSGPSKTSRVLQNVAFSVQKEVEKNLKSCLDNVNVVSVDTARTLFNQVMEKEFEDGIINWGRIVTIFAFEGILIKKLLRQQIAPDVDTYKEISYFVAEFIMNNTGEWIRQNGGWENGFVKKFEPKSG
modifications: biotin
[7]
  Kd: 5 nM

From publication PMC12412652 (Science Advances, 2025)
